In the DeepSol protein solubility set:

Assay: soluble on expression in E. coli; label from the status in PepcDB or PDB records

Soluble on expression in E. coli, not soluble:
MGSDKIHHHHHHMIKIAIVGFGTVGQGVAELLIRKREEIEKAIGEFKVTAVADSKSSISGDFSLVEALRMKRETGMLRDDAKAIEVVRSADYDVLIEASVTRVDGGEGVNYIREALKRGKHVVTSNKGPLVAEFHGLMSLAERNGVRLMYEATVGGAMPVVKLAKRYLALCEIESVKGIFNGTCNYILSRMEEERLPYEHILKEAQELGYAEADPSYDVEGIDAALKLVIIANTIGVKASYEDVEVTGITQITPEAFQVAAEKGYTIRLIAEVSREKLKVSPRLVPFHHPLAIKGTMNAAMFKTDTAGSIFVAGRGAGKEETASAILSDLYEIYAGPR
LLRGLLASIEHGINRVLRLDSTALPRLARLSGHVIAVDCRDPSLKIFILPSDEGLLLAADWAADADCTLRAPASSLLRLALSKDKTAVLHGPDVELEGDSGVLLELTGILQDLELDWEHELSNWVGPVASQLFSSRVRSSGRWTRESFTSLSQNVADYLSEESRTLVGNHEAEARFAELDRIKLDLDRLEARFARLAHFLNT
RADLQYLLNHPDPTEYKEKPLPYPFLTHWLHDIQEQTISKRLDESAGSAGEVSFIFVPCYLNRKDGIFGLGYYDLLIGMDLTVFPSYYEPWGYTPLES
MEKQNFVVLKNICKRFGSNTVIGNLDLEIKKGSLVTLLGPSGCGKTTVLRLVAGLEKPTSGQIFIDGEDVTERSIQQRDICMVFQSYALFPHMSLYENVAYGLKMLKLPSEEVRQRVDEALKIVDLEGMGERYVDQISGGQQQRVALARALVLKPKVLLFDEPLSNLDANLRRSMRETIRELQQRFDITSLYVTHDQAEAFAVSDTVIVMKQGDIMQIGTPQELYKAPKSMFMANFMGEANMFQGHFDGQQIHINGYAIDADLEVTRDKPNGEYQIGVRPEAITLHTQGSESQACQILKSAYMGSMYEVTVKWHDQELLLQLNSAQFNHTLTQHAYVVFNPRGLFLLPYAE
MEQQQRYISVLDIGTSKVLALIGEVQDDDKINIVGLGQAPSRGLRAGMVTNIDATVQAIRQAVNDAELMADTKITHVTTGIAGNHIRSLNSQGVVKIKDGEVTQADIDRAIETAKAINIPPDQKILDAVVQDYIIDTQLGVREPIGMSGVRLDTRVHIITGASTAVQNVQKCIERCGLKSD
MEVHDSDAYKADEKEEEKAEEVELDDSDVESEEESEDEESDEDPEDGPAPRRFETFDDAKQFWAEHFEEELIPNEDLDLNCYLFNPNGEPVVPQPVKRAMNPRSLFNNQRPVQVYHQRWELLPNEEAEHWKEMWVQMRDEQREQIEEQLIEFRYSSKS
MLKADYIPYTLKFKEPAGTSRGVLHTKQTYFVRVYDDTFPSRAGYGEAALFRGLSAEEGADYEERLAEVCNGVCGFTPDAWQAYPSLCFGMETALADFEGGGLLFPSAFTSGEAGIPINGLI
MAHHHHHHMSSSVKDILLEGSTCSTDMKLNDFLRSKLGGRGVVDTNEKVAMEMFVQDPETFIQNERLLRIITASPSYQELERELDEMKILLEAINKLHDEDVFSLEQWRGYEGKDTVTPLARGKINGVLTHVLREERRWAEERAVREKQVELTLTTTIEDVLFRGRVRVKDMKLNDFITMEMEGRGILRANRNVLLKEFFKDPTRYIHDAGVLNEIQASDAYLMAERAVRDEMDMEKDLRKLYKNGVSNLFGWSVASAEIRASVRDITKSFLDAALEEARKPTTTIAPIKMEGLYESVYNARWHHVVEVPGGEGTGMEVKKGRPPQQWTYKKVGYCLERDDGAEQYGAARLRLMVLASDKGRAVLVGGD
MIALKMFYTEETYEQFFDYGLDYVIDASDTICYKIHLMKECLKRDIPLISSMGAANKTDPTRFQIADISKTHTDPIAKVVRTKLRKEGIKKGVQVIFSDESPIVIREDVRKEVGNDEAKIRKAKMPPSSNAFVPSVAGLIMGGHVVMDLLKDIEIKRVKDK
MGSDKIHHHHHHMKWYADYLSIYDKPFTQAPQAVINQVKDKVRQLATHAPLVSVVAIAHNEEKRILSCLWSLCENQHNYPVEILVINNHSTDHTEEVLKELGVTYFNEYRKGPGFARQCGLNHARGKYHLCIDADTLYPPQYISTMIKVLQDKEVAGAYALWSFLPNEHHLGLFFYETLRDLYLKIQNLNRPELNVRGMAFAFHTETARKEGFRTDILRGEDGSLALALKKYGKLRFVTARKARVLTGYGTISADGSLFSSFKKRAIKGLRSFTALFYSKNNYEDEDSNLIK
MGSDKIHHHHHHMASSIQGQENVMSQSEFDSALPNGIGLAPYLRMKQEGMTENESRIVEWLLKPGNLSCAPAIKDVAEALAVSEAMIVKVSKLLGFSGFRNLRSALEDYFSQSEQVLPSELAFDEAPQDVVNKVFNITLRTIMEGQSIVNVDEIHRAARFFYQARQRDLYGAGGSNAICADVQHKFLRIGVRCQAYPDAHIMMMSASLLQEGDVVLVVTHSGRTSDVKAAVELAKKNGAKIICITHSYHSPIAKLADYIICSPAPETPLLGRNASARILQLTLLDAFFVSVAQLNIEQANINMQKTGAIVDFFSPGALK
MGSDKIHHHHHHMFALAASNMILRGDGKANLHQSSCFMTDFQDLIKNPKPETGLKRPNVGFLNPPYAQSKSDAELHELYFVKEMLDMLAEGGTGIAIIPVSCVIAPSKAKSEIVKYHRLKAVMSMPSELFYPVGTVTCIVVFEAHKPHFQTVVIDPDTQEEISTKKACRKTWFGYWRDDGFEKTKHLGRIDLYDRWQGIKARWLEHYLNNEVHTGESVTAFVTDNDEWVAEAYLETDYSKITRADFEQVVREFALFQLLGAEVGPTENLDNESYEDDDNNDFGDDE
MENNTILHNYQDWLEHHKMPAGKKKTLVAAIELFSQQGYNGTSTAQIAEKAGISQATIFKYFKTKSDLLSEIMQPMIPELKRDFFPKLQTYTKLEEVVHFIVQDRFQFLTQNADLIKILIQEALVNVKLRKTLLTNIQLTISKDFMAYWQTLKQINPQINPNLSGIEVIRTNVGLLFAYFTQRFILNIPTPSEQKDLLLIEKQILTLLILDTH
MGSDKIHHHHHHMSEKKKVLMLHGFVQSDKIFSAKTGGLRKNLKKLGYDLYYPCAPHSIDKKALFQSESEKGRDAAKEFNTSATSDEVYGWFFRNPESFNSFQIDQKVFNYLRNYVLENGPFDGVIGFSQGAGLGGYLVTDFNRILNLTDEQQPALKFFISFSGFKLEDQSYQKEYHRIIQVPSLHVRGELDEVVAESRIMALYESWPDNKRTLLVHPGAHFVPNSKPFVSQVCNWIQGITSKEGQEHNAQPEVDRKQFDKPQLEDDLLDMIDSLGKL

Soluble on expression in E. coli, soluble:
MSLSVSEQLFPLTIIHLNDFHARFEETNTVSTRCKPDEGERCIGGYARVVSRVKSLQREYADRNPIYLNAGDNFQGTLWYSLLRWNVTAHFLNLLPADVMTLGNHEFEHGIGGLVPFLDVIDSPVVVTNIDDREEPTLQGKYTKSVVLERGGRKIGVVGVIHHLTNTMGMTERLRFLDEVEQLRMEIGRLKEEGVQHIVVLSHCGLEIDRIIARELPDVDVVVGGHSHTFLYNGTADGFPDDPEDTYPIVVEHPEGRTTLIVQAASYAKYVGRITLYFDEEGNIREWEGNPEFLDSSVPQDEEVLAQLAPWREQVNVQANREGHHHHHH
MSLMKITSVDIIDVANDFASATSKWRPVVVKINTDEGISGFGEVGLAYGVGASAGIGMAKDLSAIIIGMDPMNNEAIWEKMLKKTFWGQGGGGIFSAAMSGIDIALWDIKGKAWGVPLYKMLGGKSREKIRTYASQLQFGWGDGSDKDMLTEPEQYAQAALTAVSEGYDAIKVDTVAMDRHGNWNQQNLNGPLTDKILRLGYDRMAAIRDAVGPDVDIIAEMHAFTDTTSAIQFGRMIEELGIFYYEEPVMPLNPAQMKQVADKVNIPLAAGERIYWRWGYRPFLENGSLSVIQPDICTCGGITEVKKICDMAHVYDKTVQIHVCGGPISTAVALHMETAIPNFVIHELHRYALLEPNTQTCKYNYLPKNGMYEVPELPGIGQELTEETMKKSPTITVKEGHHHHHH
MSLHSYDYDAIVIGSGPGGEGAAMGLVKQGARVAVIERYQNVGGGCTHWGTIPSKALRHAVSRIIEFNQNPLYSDHSRLLRSSFADILNHADNVINQQTRMRQGFYERNHCEILQGNARFVDEHTLALDCPDGSVETLTAEKFVIACGSRPYHPTDVDFTHPRIYDSDSILSMHHEPRHVLIYGAGVIGCEYASIFRGMDVKVDLINTRDRLLAFLDQEMSDSLSYHFWNSGVVIRHNEEYEKIEGCDDGVIMHLKSGKKLKADCLLYANGRTGNTDSLALQNIGLETDSRGQLKVNSMYQTAQPHVYAVGDVIGYPSLASAAYDQGRIAAQALVKGEANAHLIEDIPTGIYTIPEISSVGKTEQQLTAMKVPYEVGRAQFKHLARAQIVGMNVGTLKILFHRETKEILGIHCFGERAAEIIHIGQAIMEQKGGGNTIEYFVNTTFNYPTMAEAYRVAALNGLNRLFEGHHHHHH
MSLQIKSIKAYHVVQPFVDGPYRMSKGRQADAFDAVIVAITADSGLTGWGEMAPLGNFYSAAFPAGARAGVPEIAPHLIGHDPRGLASIGRLMDTVFKGHPYIKSALDMACWDLAARAAGVPLVTMLGGRESDMAETYRVVTHGTLDQMAALAKRIIAEGCRRLQVKVGGNVHDDIERVTTVASAVPKGTVIFCDANAGWTPYQARQFADATRGIDYTFEQPCTTIEENMSVRRMLDKPMVLDESVTSLEEMLEIHRLGAADGLTLKISRLGGVTRTRQIRDVAVDLGFMITVEDTGGAEIDTAAMAHLSLSTPQERRLHAIAFHEWVTVRTAFNAPPVTGSHMGIPDGPGLGIDVDPSLLGKPFFEIGEGHHHHHH
MTNLPMNKLIDEVNNELSVAINKSVMDTQLEESMLYSLNAGGKRIRPVLLLLTLDSLNTEYELGMKSAIALEMIHTYSLIHDDLPAMDNDDYRRGKLTNHKVYGEWTAILAGDALLTKAFELISSDDRLTDEVKIKVLQRLSIASGHVGMVGGQMLDMQSEGQPIDLETLEMIHKTKTGALLTFAVMSAADIANVDDTTKEHLESYSYHLGMMFQIKDDLLDCYGDEAKLGKKVGSDLENNKSTYVSLLGKDGAEDKLTYHRDAAVDELTQIDEQFNTKHLLEIVDLFYSRDHKGHHHHHH
MSLKTQQLLTIGQLAKFSGLHVKALRYYEKIGILNPTAIDKQNGYRYYSYAHIPYVNMIKICANYGLPLKQFTHYILDDGSIDMNAILKEAQLKIEEKERQLQSDERYLRFFSEQINFSQKLDKTTNLHIEQGNKDYFLLPFTGEMLSAKYYEAVRCALAEIEKCQMTFDDRVGCYFKYDDQQVNSFIAIKIKECQEDKTNFLSLCLNHRHIHAQHLTKDRIQPKIKELHQKESINEFLILETFESPYQLSQPHLEMQYVVDNTGEGHHHHHH
MNIAELYGKMGKHSWRIMDAIFKNLWDYEYVPLQLISSHARIGEEKARNILKYLSDLRVVQNRQKDYEGSTFTFIGLSLYSLHRLVRSGKVDAIGKLMGEGKESAVFNCYSEKFGECVVKFHKVGHTSFKKVKEKRDYGDLHFSVLAIRSARNEFRALQKLQGLAVPKVYAWEGNAVLMELIDAKELYRVRVENPDEVLDMILEEVAKFYHRGIVHGDLSQYNVLVSEEGIWIIDFPQSVEVGEEGWREILERDVRNIITYFSRTYRTEKDINSAIDRILQE
KVSSQSEDSSIKLIQITDTHLFAAEDGSLLSVNTADSFAAVVAAIGEEQVEFDAILATGDISQDHTPESYQRFVRGIQPLKKACYWLPGNHDYKPSMHSVLPTQQIQAVEHVLLGEHWQVVLLDSQVVGVPHGKLSEQQLQLLDNKLTEYPERHTLVLLHHHPLLVGSAWLDQHTLKESERFWDVVAKHSNVKAILCGHVHQDMDRIHLGARVMATPSTCVQFKPNSQDFALDNCSPGWRELTLHADGQVSTQVKRLKQGRFLPDFNSNGY
